Measured values reported in patent US10350168B2, “Dermal delivery compositions comprising active agent-calcium phosphate particle complexes and methods of using the same” (Laboratory Skin Care, Inc., priority 2009, dated 2019).

Test: Lactoferrin binding to calcium phosphate particles (UV 280 nm)
Format: physicochemical
Details: binding concentration of 2.99 mg/ml
Method: • Calcium phosphate particles • Lactoferrin from human milk, Sigma Aldrich, Catalog No. 0520-100MG Methods: • i. Lactoferrin solution was prepared in water at 4.98 mg/ml. • ii. 0.3 g of Calcium phosphate particles was suspended in 1.2 ml of water and mixed for 5 min. • iii. 1.8 ml of Lactoferrin solution at 4.98 mg/ml was added to achieve the final concentrations at 3.0 mg/ml, and the final volume was 3 ml. • iv. The suspension was mixed for 30 min, and centrifuged at 5000×g for 10 min in a bench top centrifuge. • v. The absorbance of supernatant was measured at 280 nm (the detection wavelength for Lactoferrin) by UV spectrophotometer. • vi. […] Lactoferrin bound was calculated by subtracting the amount of the Lactoferrin detected in the supernatant from the total initial amount in the binding suspension.

B1: Lactoferrin: Lactoferrin from human milk, Sigma Aldrich (protein, UniProt P02788 20-710, looked up)
Lactotransferrin: GRRRSVQWCAVSQPEATKCFQWQRNMRKVRGPPVSCIKRDSPIQCIQAIAENRADAVTLDGGFIYEAGLAPYKLRPVAAEVYGTERQPRTHYYAVAVVKKGGSFQLNELQGLKSCHTGLRRTAGWNVPIGTLRPFLNWTGPPEPIEAAVARFFSASCVPGADKGQFPNLCRLCAGTGENKCAFSSQEPYFSYSGAFKCLRDGAGDVAFIRESTVFEDLSDEAERDEYELLCPDNTRKPVDKFKDCHLARVPSHAVVARSVNGKEDAIWNLLRQAQEKFGKDKSPKFQLFGSPSGQKDLLFKDSAIGFSRVPPRIDSGLYLGSGYFTAIQNLRKSEEEVAARRARVVWCAVGEQELRKCNQWSGLSEGSVTCSSASTTEDCIALVLKGEADAMSLDGGYVYTAGKCGLVPVLAENYKSQQSSDPDPNCVDRPVEGYLAVAVVRRSDTSLTWNSVKGKKSCHTAVDRTAGWNIPMGLLFNQTGSCKFDEYFSQSCAPGSDPRSNLCALCIGDEQGENKCVPNSNERYYGYTGAFRCLAENAGDVAFVKDVTVLQNTDGNNNEAWAKDLKLADFALLCLDGKRKPVTEARSCHLAMAPNHAVVSRMDKVERLKQVLLHQQAKFGRNGSDCPDKFCLFQSETKNLLFNDNTECLARLHGKTTYEKYLGPQYVAGITNLKKCSTSPLLEACEFLRK
  Lactoferrin bound to calcium phosphate particles: 29.63 mg/g
